Three molecules from patent US20030215880A1 (Scripps Research, published 2003) can be followed below.

Assay [1] concerns the target T1, PrP^c, cellular isoform of the mouse prion protein (mouse, UniProt P04925 23-230). The experiment in a line: immunoprecipitation from normal mouse brain homogenate, positive control.
Assay [2] has as its target T1, PrP^c, cellular isoform of the mouse …. The experiment in a line: immunoprecipitation from normal mouse brain homogenate, western blot.

T1 sequence (P04925 23-230 limits assumed): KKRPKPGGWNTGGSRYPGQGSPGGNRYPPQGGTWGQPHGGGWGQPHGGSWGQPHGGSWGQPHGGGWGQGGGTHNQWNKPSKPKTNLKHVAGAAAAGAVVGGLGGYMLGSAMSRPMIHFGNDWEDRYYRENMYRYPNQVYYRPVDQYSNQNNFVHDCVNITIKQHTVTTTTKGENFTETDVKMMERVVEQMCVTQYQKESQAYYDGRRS

B1: Fab D13 (Fab, V domains shown)
VH: VQLLEQSGAELVKPGASVKLSCTTSGLNIEDYYIHWVKQRPEQGLEWIGRIDPENGETLYAPEFQGKATITADTSSNTVYLQLRSLTSEDTAIYYCGRFDGNGWYLDVWGAGTTVTVSS
VL: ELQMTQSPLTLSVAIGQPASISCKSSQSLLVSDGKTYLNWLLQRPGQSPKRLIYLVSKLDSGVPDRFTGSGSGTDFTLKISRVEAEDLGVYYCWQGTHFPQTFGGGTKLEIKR
Turning to B1, the binding result in assay [1] was “binds”.

B2: Fab b12 (Fab, V domains shown)
VH: QVQLVQSGAEVKKPGASVKVSCQASGYRFSNFVIHWVRQAPGQRFEWMGWINPYNGNKEFSAKFQDRVTFTADTSANTAYMELRSLRSADTAVYYCARVGPYSWDDSPQDNYYMDVWGKGTTVIVSS
VL: EIVLTQSPGTLSLSPGERATFSCRSSHSIRSRRVAWYQHKPGQAPRLVIHGVSNRASGISDRFSGSGSGTDFTLTITRVEPEDFALYYCQVYGASSYTFGQGTKLERKR
On to B2, for which the binding result in assay [2] was “no binding”.

B3: IgG1 b12 (antibody, V domains shown)
VH: B2 VH
VL: B2 VL
notes: Human IgG1
As for B3, in assay [2], the binding result is recorded as “no binding”.
